Values joined by “and” are separate entries in the source; they are usually repeats but may differ in a detail not shown here. Equal entries are not always repeated.
System: transgenic rice plants
Assay: glyphosate resistance of the EPSPS mutant in transgenic rice plants sprayed with Roundup 41% ammonium glyphosate
Type: in vivo, rice (Nipponbare)
Method in brief: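 EPSPS mutant genes were cloned into pGVP1 and introduced into Nipponbare rice embryo-derived calluses via Agrobacterium EHA105 (OD 0.2, 10 min infection, 2–3 days co-culture at 25 °C in the dark). Calluses went through recovery, two 14-day screening rounds at 30 °C, two differentiation rounds and rooting to regenerate transgenic plants.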

[1] = 1× dosage 1060 g/hectare glyphosate sprayed, recorded on 10th day
[2] = 2× dosage 2120 g/hectare sprayed to plants surviving 1×, recorded 10 days later
[3] = 5× dosage 5300 g/hectare sprayed to plants surviving 2×, recorded 10 days later
[4] = 20× dosage 21200 g/hectare sprayed to plants surviving 5×, recorded 10 days later

Row | Molecule | %++&+++ (percentage of plant having medium and high glyphosate resistance to the total number of plants observed) [1] [%] | number of plants denoted by + (low glyphosate resistance) [1] | number of plants denoted by ++ (medium glyphosate resistance) [1] | number of plants denoted by +++ (high glyphosate resistance) [1] | number of plants denoted by − (no glyphosate resistance) [1] | glyphosate resistance / survival of the rice transformed by the EPSPS, in words (1× glyphosate dosage) | number of plants denoted by + (low glyphosate resistance) [2] | number of plants denoted by ++ (medium glyphosate resistance) [2] | number of plants denoted by +++ (high glyphosate resistance) [2] | number of plants denoted by − (no glyphosate resistance) [2] | glyphosate resistance / survival of the rice transformed by the EPSPS, in words (2× glyphosate dosage) | &++&+++ (percentage of plant having medium and high glyphosate resistance to the total number of plants observed) [3] [%] | number of plants denoted by + (low glyphosate resistance) [3] | number of plants denoted by ++ (medium glyphosate resistance) [3] | number of plants denoted by +++ (high glyphosate resistance) [3] | number of plants denoted by − (no glyphosate resistance) [3] | &++&+++ (percentage of plant having medium and high glyphosate resistance to the total number of plants observed) [4] | number of plants denoted by + (low glyphosate resistance) [4] | number of plants denoted by ++ (medium glyphosate resistance) [4] | number of plants denoted by +++ (high glyphosate resistance) [4] | further results
1 | R4: rice EPSPS mutant, SEQ ID NO: 36, mutation S267(247)G (protein) MASNAAAAAAKAEEIVLQPIREISGAVQLPGSKSLSNRILLLSALSEGTTVVDNLLNSEDVHYMLEALKALGLSVEADKVAKRAVVVGCGGKFPVEKDAKEEVQLFLGNAGTAMRPLTAAVTAAGGNATYVLDGVPRMRERPIGDLVVGLKQLGADVDCFLGTECPPVRVKGIGGLPGGKVKLSGSISSQYLSALLMAAPLALGDVEIEIIDKLISIPYVEMTLRLMERFGVKAEHSDSWDRFYIKGGQKYKSPGNAYVEGDASSAGYFLAGAAITGGTVTVQGCGTTSLQGDVKFAEVLEMMGAKVTWTDTSVTVTGPPREPYGKKHLKAVDVNMNKMPDVAMTLAVVALFADGPTAIRDVASWRVKETERMVAIRTELTKLGASVEEGPDYCIITPPEKLNITAIDTYDDHRMAMAFSLAACADVPVTIRDPGCTRKTFPNYFDVLSTFVRN | 66.7 | 46 | 62 | 44 | 7 | obviously superior to that of the rice seedlings transformed by R0 | 136 | 10 | 2 | 11 | some of the transgenic rice seedlings transformed by R1 and R4 still survived | 0.0 | 67 | 0 | 0 | 92 | 0.0% | 8 | 0 | 0 | glyphosate resistance / survival of the rice transformed by the EPSPS, in words (5× glyphosate dosage): some of the transgenic rice seedlings transformed by R1 and R4 still survived; number of plants denoted by − (no glyphosate resistance) [4]: 151; glyphosate resistance / survival of the rice transformed by the EPSPS, in words (20× glyphosate dosage): some of the transgenic rice seedlings transformed by R1 and R4 still survived
2 | R6: rice EPSPS mutant, SEQ ID NO: 40, mutations S267(247)G, L214(195)P and P116(101)S (protein) MASNAAAAAAKAEEIVLQPIREISGAVQLPGSKSLSNRILLLSALSEGTTVVDNLLNSEDVHYMLEALKALGLSVEADKVAKRAVVVGCGGKFPVEKDAKEEVQLFLGNAGTAMRSLTAAVTAAGGNATYVLDGVPRMRERPIGDLVVGLKQLGADVDCFLGTECPPVRVKGIGGLPGGKVKLSGSISSQYLSALLMAAPLALGDVEIEIIDKPISIPYVEMTLRLMERFGVKAEHSDSWDRFYIKGGQKYKSPGNAYVEGDASSAGYFLAGAAITGGTVTVQGCGTTSLQGDVKFAEVLEMMGAKVTWTDTSVTVTGPPREPYGKKHLKAVDVNMNKMPDVAMTLAVVALFADGPTAIRDVASWRVKETERMVAIRTELTKLGASVEEGPDYCIITPPEKLNITAIDTYDDHRMAMAFSLAACADVPVTIRDPGCTRKTFPNYFDVLSTFVRN | 70.0 | 7 | 3 | 18 | 2 | had relatively high resistance to glyphosate | 3 | 1 | 18 | 8 | had relatively high resistance to glyphosate | 63.3 | 0 | 6 | 13 | 11 | 63.38% and 63.3% | 0 | 11 | 8 | number of plants denoted by − (no glyphosate resistance) [4]: 11
3 | R5: rice EPSPS mutant, SEQ ID NO: 38, mutations S267(247)G and P116(101)S (protein) MASNAAAAAAKAEEIVLQPIREISGAVQLPGSKSLSNRILLLSALSEGTTVVDNLLNSEDVHYMLEALKALGLSVEADKVAKRAVVVGCGGKFPVEKDAKEEVQLFLGNAGTAMRSLTAAVTAAGGNATYVLDGVPRMRERPIGDLVVGLKQLGADVDCFLGTECPPVRVKGIGGLPGGKVKLSGSISSQYLSALLMAAPLALGDVEIEIIDKLISIPYVEMTLRLMERFGVKAEHSDSWDRFYIKGGQKYKSPGNAYVEGDASSAGYFLAGAAITGGTVTVQGCGTTSLQGDVKFAEVLEMMGAKVTWTDTSVTVTGPPREPYGKKHLKAVDVNMNKMPDVAMTLAVVALFADGPTAIRDVASWRVKETERMVAIRTELTKLGASVEEGPDYCIITPPEKLNITAIDTYDDHRMAMAFSLAACADVPVTIRDPGCTRKTFPNYFDVLSTFVRN | 84.2 | 0 | 6 | 10 | 3 | had relatively high resistance to glyphosate | 3 | 6 | 4 | 6 | had relatively high resistance to glyphosate | 42.1 | 3 | 8 | 0 | 8 | 0.0% | 8 | 0 | 0 | %++&+++ (percentage of plant having medium and high glyphosate resistance to the total number of plants observed) [2]: 63.3%; number of plants denoted by − (no glyphosate resistance) [4]: 11
